The target in experiment [1] is T1, peptide 25 (Homo sapiens, UniProt Q6IQ26).
T1 chain: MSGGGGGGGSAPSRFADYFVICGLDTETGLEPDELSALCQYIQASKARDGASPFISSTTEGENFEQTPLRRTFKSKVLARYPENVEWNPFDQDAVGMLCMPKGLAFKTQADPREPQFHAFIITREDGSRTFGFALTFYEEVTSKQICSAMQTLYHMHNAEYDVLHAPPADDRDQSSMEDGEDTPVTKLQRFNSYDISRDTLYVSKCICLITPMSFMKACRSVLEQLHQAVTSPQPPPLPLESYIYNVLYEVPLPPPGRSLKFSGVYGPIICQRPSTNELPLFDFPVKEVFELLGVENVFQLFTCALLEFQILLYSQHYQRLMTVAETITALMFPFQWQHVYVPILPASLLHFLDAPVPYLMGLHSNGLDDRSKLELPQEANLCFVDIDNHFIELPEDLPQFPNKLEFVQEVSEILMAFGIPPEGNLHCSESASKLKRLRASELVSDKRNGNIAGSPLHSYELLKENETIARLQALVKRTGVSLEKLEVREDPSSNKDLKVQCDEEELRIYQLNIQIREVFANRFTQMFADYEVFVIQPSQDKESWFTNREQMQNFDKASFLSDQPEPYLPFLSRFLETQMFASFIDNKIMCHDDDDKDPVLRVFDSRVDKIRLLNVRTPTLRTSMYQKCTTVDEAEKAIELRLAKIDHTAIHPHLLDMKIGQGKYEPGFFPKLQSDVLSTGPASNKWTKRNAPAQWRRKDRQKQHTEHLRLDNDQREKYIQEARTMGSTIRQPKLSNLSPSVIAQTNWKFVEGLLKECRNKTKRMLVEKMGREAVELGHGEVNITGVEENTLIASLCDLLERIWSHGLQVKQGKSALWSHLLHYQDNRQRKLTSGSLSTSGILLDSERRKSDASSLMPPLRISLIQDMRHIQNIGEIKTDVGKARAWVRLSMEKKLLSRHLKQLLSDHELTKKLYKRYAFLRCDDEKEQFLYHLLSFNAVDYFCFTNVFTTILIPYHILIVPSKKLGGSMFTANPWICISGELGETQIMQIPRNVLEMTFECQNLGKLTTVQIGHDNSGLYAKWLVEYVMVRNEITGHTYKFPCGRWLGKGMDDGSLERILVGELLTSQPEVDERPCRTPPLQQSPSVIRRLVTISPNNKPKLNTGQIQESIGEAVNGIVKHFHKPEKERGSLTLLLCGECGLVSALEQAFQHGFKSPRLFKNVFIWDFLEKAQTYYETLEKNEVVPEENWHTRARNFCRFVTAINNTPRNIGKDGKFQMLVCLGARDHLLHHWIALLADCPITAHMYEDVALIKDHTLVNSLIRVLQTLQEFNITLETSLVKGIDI
Put plainly: fluorescence polarization. (Polarisation of emitted light reports the rotation of a fluorescent probe.)

Experiment [2] addresses T1, peptide 25. Put plainly: microscale thermophoresis (fluorescence intensity).
In another experiment the target is T2, peptide 21 (Homo sapiens, UniProt Q6IQ26).
T2 chain: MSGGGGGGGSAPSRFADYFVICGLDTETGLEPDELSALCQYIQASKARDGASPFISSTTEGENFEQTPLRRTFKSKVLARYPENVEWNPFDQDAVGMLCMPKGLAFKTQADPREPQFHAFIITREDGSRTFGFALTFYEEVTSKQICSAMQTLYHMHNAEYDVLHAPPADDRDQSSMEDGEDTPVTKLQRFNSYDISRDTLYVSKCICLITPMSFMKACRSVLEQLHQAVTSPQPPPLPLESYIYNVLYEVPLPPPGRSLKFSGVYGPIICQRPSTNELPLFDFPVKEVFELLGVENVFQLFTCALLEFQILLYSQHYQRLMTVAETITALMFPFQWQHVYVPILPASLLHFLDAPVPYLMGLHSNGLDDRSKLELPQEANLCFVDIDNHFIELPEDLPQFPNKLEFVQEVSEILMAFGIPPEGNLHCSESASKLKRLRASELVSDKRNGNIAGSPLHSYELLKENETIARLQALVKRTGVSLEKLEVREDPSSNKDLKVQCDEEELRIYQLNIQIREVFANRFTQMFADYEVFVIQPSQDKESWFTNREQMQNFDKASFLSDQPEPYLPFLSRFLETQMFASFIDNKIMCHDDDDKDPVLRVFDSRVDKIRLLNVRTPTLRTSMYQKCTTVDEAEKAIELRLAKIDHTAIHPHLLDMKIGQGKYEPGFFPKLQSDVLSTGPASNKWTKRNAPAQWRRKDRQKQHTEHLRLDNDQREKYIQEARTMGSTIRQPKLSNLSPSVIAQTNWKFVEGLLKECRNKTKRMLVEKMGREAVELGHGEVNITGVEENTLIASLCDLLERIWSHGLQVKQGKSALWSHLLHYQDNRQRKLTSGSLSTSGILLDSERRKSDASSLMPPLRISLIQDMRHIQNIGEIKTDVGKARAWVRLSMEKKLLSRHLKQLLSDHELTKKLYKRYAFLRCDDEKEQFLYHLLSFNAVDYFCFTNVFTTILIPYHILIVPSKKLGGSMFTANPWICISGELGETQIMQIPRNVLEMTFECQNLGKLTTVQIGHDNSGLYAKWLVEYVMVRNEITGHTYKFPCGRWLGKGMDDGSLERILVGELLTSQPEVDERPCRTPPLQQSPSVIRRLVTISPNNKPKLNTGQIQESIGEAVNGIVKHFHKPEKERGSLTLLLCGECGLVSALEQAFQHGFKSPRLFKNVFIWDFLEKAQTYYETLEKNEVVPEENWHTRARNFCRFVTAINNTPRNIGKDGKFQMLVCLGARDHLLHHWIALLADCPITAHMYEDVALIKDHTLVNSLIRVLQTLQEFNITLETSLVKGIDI
Put plainly: fluorescence polarization.

Experiment [3] concerns the target T3, StRIP3 (Homo sapiens, UniProt Q6IQ26).
T3 chain: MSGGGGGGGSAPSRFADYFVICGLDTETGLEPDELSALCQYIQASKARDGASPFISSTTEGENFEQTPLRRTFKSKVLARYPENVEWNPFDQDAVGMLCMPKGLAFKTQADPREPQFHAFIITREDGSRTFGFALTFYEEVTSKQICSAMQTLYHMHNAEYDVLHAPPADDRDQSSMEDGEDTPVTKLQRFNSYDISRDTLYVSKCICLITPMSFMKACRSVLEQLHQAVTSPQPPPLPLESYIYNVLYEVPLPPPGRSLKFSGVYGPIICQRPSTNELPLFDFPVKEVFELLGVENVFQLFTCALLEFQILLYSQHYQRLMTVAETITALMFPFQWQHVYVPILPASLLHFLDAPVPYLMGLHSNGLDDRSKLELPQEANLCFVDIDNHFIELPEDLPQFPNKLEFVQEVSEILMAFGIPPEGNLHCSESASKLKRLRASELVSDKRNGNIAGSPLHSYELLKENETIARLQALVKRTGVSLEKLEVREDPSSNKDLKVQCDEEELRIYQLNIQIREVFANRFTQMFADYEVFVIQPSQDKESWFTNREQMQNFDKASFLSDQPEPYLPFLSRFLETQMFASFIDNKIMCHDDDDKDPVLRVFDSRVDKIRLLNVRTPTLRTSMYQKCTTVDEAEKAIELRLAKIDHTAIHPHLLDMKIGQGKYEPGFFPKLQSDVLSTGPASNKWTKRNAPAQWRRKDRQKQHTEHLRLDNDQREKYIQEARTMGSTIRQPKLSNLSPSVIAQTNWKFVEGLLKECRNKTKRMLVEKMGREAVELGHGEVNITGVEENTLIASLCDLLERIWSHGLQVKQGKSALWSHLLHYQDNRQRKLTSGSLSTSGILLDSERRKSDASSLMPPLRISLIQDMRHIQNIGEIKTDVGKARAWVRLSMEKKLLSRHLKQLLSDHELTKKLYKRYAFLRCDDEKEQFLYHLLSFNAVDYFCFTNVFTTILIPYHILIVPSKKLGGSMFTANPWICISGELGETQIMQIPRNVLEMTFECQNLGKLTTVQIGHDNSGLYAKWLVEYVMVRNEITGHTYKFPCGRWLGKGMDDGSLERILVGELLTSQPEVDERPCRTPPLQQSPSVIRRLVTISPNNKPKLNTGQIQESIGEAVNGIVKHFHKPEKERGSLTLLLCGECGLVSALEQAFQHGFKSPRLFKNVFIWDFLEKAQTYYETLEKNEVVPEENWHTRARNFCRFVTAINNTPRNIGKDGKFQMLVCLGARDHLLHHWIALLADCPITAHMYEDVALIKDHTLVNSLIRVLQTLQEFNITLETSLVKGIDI
Put plainly: competition fluorescence polarization.

Experiment [4] has as its target T3, StRIP3. Put plainly: fluorescence polarization.

This is an account of results in article PMC4834642, “Orthogonal ring-closing alkyne and olefin metathesis for the synthesis of small GTPase-targeting bicyclic peptides” (Nature Communications, 2016).

B1: Rab8a 6-176 (protein)
chain: DYLFKLLLIGDSGVGKTCVLFRFSEDAFNSTFISTIGIDFKIRTIELDGKRIKLQIWDTAGQERFRTITTAYYRGAMGIMLVYDITNEKSFDNIRNWIRNIEEHASADVEKMILGNKCDVNDKRQVSKERGEKLALDYGIKFMETSAKANINVENAFFTLARDIKAKMDKK
modifications: GppNHp-bound Rab8a; bicyclic olefin/alkyne crosslinked StRIP3 derivative, fluorescein-PEG label
What is called Kd is a measure of binding affinity in units of concentration. Higher therefore signals a looser complex. Turning to B1, the Kd was found to be 6.6 µM with peptide 25 [1] and 11 µM with peptide 25 [2].

B2: Rab8a 6-176 (protein)
chain: DYLFKLLLIGDSGVGKTCVLFRFSEDAFNSTFISTIGIDFKIRTIELDGKRIKLQIWDTAGQERFRTITTAYYRGAMGIMLVYDITNEKSFDNIRNWIRNIEEHASADVEKMILGNKCDVNDKRQVSKERGEKLALDYGIKFMETSAKANINVENAFFTLARDIKAKMDKK
modifications: GppNHp-bound Rab8a; dibrominated olefin macrocyclic StRIP3 derivative, fluorescein-PEG label
In the case of B2, the Kd with peptide 21 was 10.7 µM.

B3: Rab8a 6-176 (protein)
chain: DYLFKLLLIGDSGVGKTCVLFRFSEDAFNSTFISTIGIDFKIRTIELDGKRIKLQIWDTAGQERFRTITTAYYRGAMGIMLVYDITNEKSFDNIRNWIRNIEEHASADVEKMILGNKCDVNDKRQVSKERGEKLALDYGIKFMETSAKANINVENAFFTLARDIKAKMDKK
modifications: GppNHp-bound Rab8a; acetylated i,i+4 olefin hydrocarbon-stapled peptide
What is called IC50 is the concentration at which inhibition is half-maximal. For the molecule B3, in the experiment with StRIP3 [3], the IC50 was determined as 33 µM.

B4: Rab8a 6-176 (protein)
chain: DYLFKLLLIGDSGVGKTCVLFRFSEDAFNSTFISTIGIDFKIRTIELDGKRIKLQIWDTAGQERFRTITTAYYRGAMGIMLVYDITNEKSFDNIRNWIRNIEEHASADVEKMILGNKCDVNDKRQVSKERGEKLALDYGIKFMETSAKANINVENAFFTLARDIKAKMDKK
modifications: GppNHp-bound Rab8a; i,i+4 olefin hydrocarbon-stapled peptide, fluorescein-PEG label
In turn, B4 gave a dissociation constant Kd with StRIP3 [4] of 20.7 µM.
